Biological target: T1, HKU1 spike (2P-stabilized ectodomain with foldon) (HCoV-HKU1, isolate N5 (as in PDB 5I08), UniProt Q0ZME7, stabilised)
T1 construct: source: ExpiCHO or Freestyle 293F cells, purified
Assay: ELISA
Conditions: both partners purified

Binder | binding result
Antibody 3A3, full-length (mouse variable region-human IgG1 constant region chimera) (antibody, V domains shown) VH: QVQLQQSGAELLKPGASVKLSCTASGFNIKDTYIHWLKQRPEQGLEWIGRIGPAIGNTIYAPKFQGKATITTDTSSNTAYLQLSSLTSEDTAVYYCARYYGSSYYYFDYWGQGTTLTVSS VL: DIVMTQSAPSVPVTPGESVSISCRSSKSLLHSNGNTYLYWFLQRPGQSPQLLIYRMSNLASGVPDRFSGSGSGTAFTLRISRVEAEDVGVYYCMQYLEYPLTFGAGTKLELK | binds
Antibody RAY53, full-length human IgG1 (antibody, V domains shown) VH: QVQLVQSGAVVLKPGASVKLSCKASGFNIKNTYIHWLKQAPGQRLEWIGRIGPAIGNTIYAPKFQGKATITTDTSASTAYLELSSLRSEDTAVYYCARYYGSSYYYLDYWGQGTTVTVSS VL: DIVMTQSPLSVPVTPGEPVSISCRSSKSLLHSNGNTYLYWFLQKPGQSPQLLIARMSTLASGVPDRFSGSGSGTAFTLKISRVEAEDVGVYYCMQYLEYPLTFGAGTKLEIK | binds
